We go through three substances from PMC7282976.

The nature of data set [1]: conditioned-media western and immunocytochemistry. Particulars: glycan lost; control: same mutant without Tun.
The nature of data set [2]: anti-Hag western densitometry of cell lysates. Particulars: glycan lost; control: native V3, Dox, no Tun.
Data set [3] is described as follows: anti-Hag immunocytochemistry, extracellular V3 staining. Particulars: glycan lost; control: native V3, Dox, no Tun.

Turning to “versican isoform V3 (rat V3): N57Q + tunicamycin”, in data set [1], the expression_or_secretion result is on record as “abolishes”. On to “versican isoform V3 (rat V3): N330Q + tunicamycin”, for which, in data set [1], the expression_or_secretion entry is given as “abolishes”. Turning to “versican isoform V3 (rat V3): tunicamycin”, the “expression_or_secretion, fold_change” value in data set [2] is recorded as “decreases”. Also, the localisation_or_trafficking entry in data set [3] is “no change”.
